# T1: MLL4 PHD2/3 fingers (aa 227-324), 15N-labeled (human, UniProt O14686 227-324, uniformly 15N-labeled)
# T1 sequence (looked up): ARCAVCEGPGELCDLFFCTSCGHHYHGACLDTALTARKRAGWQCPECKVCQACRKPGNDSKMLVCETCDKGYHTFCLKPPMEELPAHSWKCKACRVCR
# Target: T1, MLL4 PHD2/3 fingers (aa 227-324), …
# Experiment: NMR titration
row,Binder,binding result
1,"GWTGARTLADIKARALQVRGA (peptide, UniProt Q8IXJ9 607-627, looked up) [ASXL1 peptide (residues 607-627 of ASXL1), wild type]",binds
2,"GWTGTRTLADIKARALQVRGA (peptide, UniProt Q8IXJ9 607-627, looked up) [ASXL1 peptide (residues 607-627 of ASXL1) A611T]",binds
3,"NRTGAITLADIKAKAQLVKAQ (peptide, UniProt Q76L83 650-670, looked up) [ASXL2 peptide (residues 650-670 of ASXL2) R655I]",binds

# — publication PMC11957774 (The Journal of Biological Chemistry, 2025)
